{"source": "patent US20260209293A1", "about": "(Novo Nordisk, published 2026)", "key": {"[1]": {"target": "T1, human amylin-3(a) receptor (human, UniProt P30988 25-474; O60896 24-148)", "T1 sequence (looked up) 1": "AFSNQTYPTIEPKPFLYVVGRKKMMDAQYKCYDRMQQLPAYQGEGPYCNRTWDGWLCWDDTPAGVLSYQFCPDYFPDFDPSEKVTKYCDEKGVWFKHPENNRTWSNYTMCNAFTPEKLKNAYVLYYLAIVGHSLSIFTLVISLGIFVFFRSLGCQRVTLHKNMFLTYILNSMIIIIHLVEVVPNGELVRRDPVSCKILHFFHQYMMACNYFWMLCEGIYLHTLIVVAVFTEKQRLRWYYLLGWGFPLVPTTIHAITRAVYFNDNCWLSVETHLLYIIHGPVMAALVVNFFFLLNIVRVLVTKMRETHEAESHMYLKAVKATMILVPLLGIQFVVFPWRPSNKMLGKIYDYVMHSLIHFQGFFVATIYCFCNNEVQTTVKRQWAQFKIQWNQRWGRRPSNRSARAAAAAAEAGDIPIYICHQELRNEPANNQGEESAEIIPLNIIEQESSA", "T1 sequence (looked up) 2": "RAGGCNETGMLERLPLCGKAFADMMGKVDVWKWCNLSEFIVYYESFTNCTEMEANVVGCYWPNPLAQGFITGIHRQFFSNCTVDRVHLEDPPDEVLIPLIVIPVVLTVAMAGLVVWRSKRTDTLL", "experiment": "cell-based or functional assay"}, "[2]": {"target": "T2, human calcitonin receptor (a) (human, UniProt P30988 25-474)", "T2 sequence (looked up)": "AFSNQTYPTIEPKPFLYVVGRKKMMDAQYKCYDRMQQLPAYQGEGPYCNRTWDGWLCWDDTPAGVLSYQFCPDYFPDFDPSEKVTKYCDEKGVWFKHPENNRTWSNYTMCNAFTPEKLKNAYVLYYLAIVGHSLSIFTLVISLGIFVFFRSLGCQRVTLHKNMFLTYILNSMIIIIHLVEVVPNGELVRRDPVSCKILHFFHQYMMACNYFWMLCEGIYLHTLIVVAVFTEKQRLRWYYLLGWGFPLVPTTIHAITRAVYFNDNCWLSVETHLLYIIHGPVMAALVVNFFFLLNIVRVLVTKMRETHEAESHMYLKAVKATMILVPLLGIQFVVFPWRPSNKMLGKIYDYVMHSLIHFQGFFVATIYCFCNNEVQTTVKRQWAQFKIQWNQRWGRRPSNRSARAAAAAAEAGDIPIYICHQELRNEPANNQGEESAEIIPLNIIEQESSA", "experiment": "cell-based or functional assay"}}, "note": "*1 amine or outer side, *2 acyl side, *3 side chain or, on linkers, in order; H or OH if unused. The star is where a group is joined. C18 diacid = O=C(O)CCCCCCCCCCCCCCCCC(=O)*; γGlu = O=C(O)[C@H](CCC(=O)[*:2])N[*:1]", "data": [{"binder": "{C18 diacid-γGlu}-ASHLSTAQTARLAEFLHHFGPILPPTDVGSETP-NH2 (SMILES CC[C@H](C)[C@H](NC(=O)[C@@H]1CCCN1C(=O)CNC(=O)[C@H](Cc1ccccc1)NC(=O)[C@H](Cc1c[nH]cn1)NC(=O)[C@H](Cc1c[nH]cn1)NC(=O)[C@H](CC(C)C)NC(=O)[C@H](Cc1ccccc1)NC(=O)[C@H](CCC(=O)O)NC(=O)[C@H](C)NC(=O)[C@H](CC(C)C)NC(=O)[C@H](CCCNC(=N)N)NC(=O)[C@H](C)NC(=O)[C@@H](NC(=O)[C@H](CCC(N)=O)NC(=O)[C@H](C)NC(=O)[C@@H](NC(=O)[C@H](CO)NC(=O)[C@H](CC(C)C)NC(=O)[C@H](Cc1c[nH]cn1)NC(=O)[C@H](CO)NC(=O)[C@H](C)NC(=O)CC[C@H](NC(=O)CCCCCCCCCCCCCCCCC(=O)O)C(=O)O)[C@@H](C)O)[C@@H](C)O)C(=O)N[C@@H](CC(C)C)C(=O)N1CCC[C@H]1C(=O)N1CCC[C@H]1C(=O)N[C@H](C(=O)N[C@@H](CC(=O)O)C(=O)N[C@H](C(=O)NCC(=O)N[C@@H](CO)C(=O)N[C@@H](CCC(=O)O)C(=O)N[C@H](C(=O)N1CCC[C@H]1C(N)=O)[C@@H](C)O)C(C)C)[C@@H](C)O)", "values": [{"measurement": "hAmyR3 potency, EC50 (pM); CRE-luciferase reporter in BHK cells", "setting": "[1]", "value": 1.06, "unit": "pM"}, {"measurement": "hCalcR potency, EC50 (pM); CRE-luciferase reporter in BHK cells", "setting": "[2]", "value": 1.76, "unit": "pM"}]}]}
